From the supplement of paper PMC10724198 come the findings set out here.

± gives the standard deviation of the averaged measurements.
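Further: PSI is a weighted mean of sequencing reads over stability bins, variants kept only with over 10 reads, mCherry proximal and sfGFP distal, peptide attached via GGGS linker.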

The test system of this series is Saccharomyces cerevisiae. The series is described as follows: protein stability index of tFT-peptide fusion (C-terminal peptide) (PSI (0-1 scale)); higher = more stable (slower turnover). To be noted: genetic background: wild type; temperature: 30 C. How it is done:
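Multiplexed protein stability (MPS) profiling in S. cerevisiae. Random 12-aa peptides (tFT-X12 library) are fused to the C-terminus of a sfGFP-mCherry tandem fluorescent timer, after mCherry and a GGGS linker. Cells are FACS-sorted into 8 mCherry/sfGFP bins and deep-sequenced. The protein stability index (PSI) is the read-weighted bin average, scaled from 0 (unstable) to 1 (stable). Only peptides with >10 reads are reported; cells were grown at 30 °C in SC-His with glucose.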
EKIRGFPGEIGE had a protein stability index of 0.694 ± 0.022.
On to EKKKEKHKDQEK, for which the protein stability index is 0.692 ± 0.055.
EKKKKENKVKRF returned a protein stability index of 0.664 ± 0.013.
EKKKKNKNQEKQ came in with a protein stability index of 0.671 ± 0.044.
On to EKKKNKTQLKTK, for which the protein stability index was 0.667 ± 0.024.
EKKNGKEKEKER returned a protein stability index of 0.6647 ± 0.0062.
To EKKRQKKQKTGK belongs 0.67136 ± 0.00051.
To EKKTNEKNSYNL belongs 0.659 ± 0.016; to EKPIPFCSSVAS, 0.713 ± 0.063; to EKVWTLTGLSHL, 0.722 ± 0.04.
The sequence EKYGKKIRRKNR returned a protein stability index of 0.766 ± 0.11.
To ELELDRTEWVTI belongs 0.799 ± 0.05; to ELFGSGERRVVV, 0.68 ± 0.014; to ELGVGVLDRGCL, 0.608 ± 0.22.
Regarding ELLTCSSSVMLL, the protein stability index was found to be 0.799 ± 0.026.
Take ELPECEHLTSLT: the protein stability index was 0.691 ± 0.068.
For ELRCEMEFWCER the value was 0.594 ± 0.0066.
For ELRSYAGMSGFN the value was 0.736 ± 0.014; for ELSARVCLGSLF, 0.676 ± 0.015; for ELVRIVREEYRC, 0.685 ± 0.1.
Turning to EMGGLKACRGGG, the protein stability index was 0.553 ± 0.026.
Sequence EMGTTMATPCDH returned a protein stability index of 0.681 ± 0.0073.
To ENGRRTDKKVST belongs 0.687 ± 0.023.
Take ENNWILSIKEKT: the protein stability index was 0.747 ± 0.02.
Sequence ENQGQKQKKKKR displayed a protein stability index of 0.753 ± 0.046.
With ENQGQSYVTMRY, the protein stability index was determined as 0.725 ± 0.046.
Turning to EPESPVTARAKP, the protein stability index is 0.672 ± 0.031.
For EPLLVSPATPNL the value was 0.7311 ± 0.00091; for EPMHTLKSIITH, 0.635 ± 0.073.
With EPNKGTNMKVND, the protein stability index was 0.705 ± 0.048.
To EPNSPTYLSMLI belongs 0.637 ± 0.018; to EQGAGFWVGGEV, 0.757 ± 0.099; to EQSERINKKARK, 0.67 ± 0.063.
As for EQSWEVWGRGQG, the protein stability index came out at 0.744 ± 0.022.
In turn, ERAGPGGARRVD registered a protein stability index of 0.696 ± 0.018.
For ERALYGFSSIFY the value was 0.667 ± 0.075; for ERASGNWQVYKG, 0.639 ± 0.011; for EREREKGEEEEG, 0.629 ± 0.0079.
For ERERREGEGKRQ the value was 0.721 ± 0.023.
In the case of ERGGLGLSRCVS, the protein stability index stood at 0.663 ± 0.077.
For ERHTASGHLLFV, the protein stability index was found to be 0.729 ± 0.14.
As to ERLKRNKKSTNG, the protein stability index is 0.726 ± 0.018.
Regarding ERMLHGTATSVW, the protein stability index came to 0.736 ± 0.046.
Sequence ERRGRDRSQTLR returned a protein stability index of 0.715 ± 0.014.
Turning to ERRKKKRGQETQ, the protein stability index came out at 0.655 ± 0.12.
For ERRPTYFFHDHE, the protein stability index came out at 0.693 ± 0.055.
To ERRPYVAGRRRF belongs 0.6722 ± 0.0049.
To ERSQTKIANDKK belongs 0.719 ± 0.042.
With ERSVSDSHERID, the protein stability index was 0.678 ± 0.05.
To ESASSLNFTSLM belongs 0.731 ± 0.053; to ESCIKGCSGVVS, 0.651 ± 0.06.
For ESCLVSKFDVIV the value was 0.656 ± 0.052.
For ESIEVGTGDWGG the value was 0.673 ± 0.053; for ESKERKTRKLKK, 0.677 ± 0.048; for ESLAKLPLRRPR, 0.63 ± 0.011.
Consider ESLFFPFAFSSV, for which the protein stability index turned out to be 0.809 ± 0.13.
The sequence ESQYAIFGHDIW yielded a protein stability index of 0.709 ± 0.011.
For ESRVLYGLCLWC the value was 0.596 ± 0.028; for ESSQLELRGGGR, 0.725 ± 0.0047; for ESVVKNDVTYVQ, 0.691 ± 0.041.
In the case of ETEGSSSLGTRI, the protein stability index worked out at 0.661 ± 0.021.
ETHRANTRMERL yielded a protein stability index of 0.726 ± 0.049.
For the sequence ETKEAKKKTIDS, the protein stability index was found to be 0.7217 ± 0.0065.
ETLEKYGDPMRD registered a protein stability index of 0.624 ± 0.0088.
